Values of other authors in patent publication US20250319161A1, “IMPROVED METHODS OF TREATING DISEASES RESULTING FROM A MALADAPTED STRESS RESPONSE” (priority 2021, published 2025).
Ends that are not written are not given here.

Tests used:
CRFR2 [1] = molecular target: T1, CRFR2 (Homo sapiens, UniProt Q13324); conditions: in vitro
T1 sequence (Q13324 1-411): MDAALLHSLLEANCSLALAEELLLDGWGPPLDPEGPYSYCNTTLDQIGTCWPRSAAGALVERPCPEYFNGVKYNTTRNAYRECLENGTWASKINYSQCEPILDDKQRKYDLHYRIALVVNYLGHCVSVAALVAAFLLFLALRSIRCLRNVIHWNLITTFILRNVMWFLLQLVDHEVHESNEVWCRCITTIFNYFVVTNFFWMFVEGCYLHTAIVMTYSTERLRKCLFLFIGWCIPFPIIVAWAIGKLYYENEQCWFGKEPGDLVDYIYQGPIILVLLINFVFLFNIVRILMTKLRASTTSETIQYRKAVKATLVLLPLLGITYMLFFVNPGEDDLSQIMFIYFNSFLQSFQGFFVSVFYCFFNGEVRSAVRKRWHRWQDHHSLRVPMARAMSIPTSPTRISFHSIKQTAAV

CRFR2 [2] = molecular target: T1, CRFR2; conditions: in vitro; remark: listed apart in the source
CRFR2 [3] = molecular target: T1, CRFR2; conditions: read-out: inhibitory constant at CRFR2

Row | Substance | concentration achieving maximal CRFR2 endocytosis (CRFR2 [1]) | EC50 (CRFR2 [2]) | Ki (CRFR2 [3])
1 | endogenous urocortin 2, IVLSLDVPIG LLQILLEQAR ARAARBQATT NARILARV-NH2 [UCN2] | 100 nmol | 4.3 nM | 1.1 nM
2 | endogenous urocortin 1, DNPSLSIDLTFHLLRTLLELARTQSQRERAEQNRIIFDSV-NH2 (DNPSLSIDLTFHLLRTLLELARTQSQRERAEQNRIIFDSV-NH2; UniProt P55089 83-122, looked up) [UCN1] |  |  | 0.4 nM
